Results published in publication PMC10328077.

Legend:
[1] = target: NT647-labeled apoE2(1–165) fragment (human); assay: MST; labelled apoE2(1-165) at 2.8 nM held constant, FH402H, FH402Y, FH1-4 or FH19-20 titrated; n = 3; Kd fit model of normalized (ΔFnorm) values; 150 mM KCl, 25 mM HEPES pH 7.5, 0.01% Tween 20, 0.01% NaN3
[2] = target: NT647-FH5-7 402Y (human) (UniProt P08603); assay: MST; NT647-FH5-7 402Y at 35 nM held constant, apoE2, apoE3 or apoE4 titrated; n = 3; Kd fit model of normalized (ΔFnorm) values; 150 mM KCl, 25 mM HEPES pH 7.5, 0.01% Tween 20, 0.01% NaN3
Sequence of NT647-FH5-7 402Y (human) (P08603 19-1231): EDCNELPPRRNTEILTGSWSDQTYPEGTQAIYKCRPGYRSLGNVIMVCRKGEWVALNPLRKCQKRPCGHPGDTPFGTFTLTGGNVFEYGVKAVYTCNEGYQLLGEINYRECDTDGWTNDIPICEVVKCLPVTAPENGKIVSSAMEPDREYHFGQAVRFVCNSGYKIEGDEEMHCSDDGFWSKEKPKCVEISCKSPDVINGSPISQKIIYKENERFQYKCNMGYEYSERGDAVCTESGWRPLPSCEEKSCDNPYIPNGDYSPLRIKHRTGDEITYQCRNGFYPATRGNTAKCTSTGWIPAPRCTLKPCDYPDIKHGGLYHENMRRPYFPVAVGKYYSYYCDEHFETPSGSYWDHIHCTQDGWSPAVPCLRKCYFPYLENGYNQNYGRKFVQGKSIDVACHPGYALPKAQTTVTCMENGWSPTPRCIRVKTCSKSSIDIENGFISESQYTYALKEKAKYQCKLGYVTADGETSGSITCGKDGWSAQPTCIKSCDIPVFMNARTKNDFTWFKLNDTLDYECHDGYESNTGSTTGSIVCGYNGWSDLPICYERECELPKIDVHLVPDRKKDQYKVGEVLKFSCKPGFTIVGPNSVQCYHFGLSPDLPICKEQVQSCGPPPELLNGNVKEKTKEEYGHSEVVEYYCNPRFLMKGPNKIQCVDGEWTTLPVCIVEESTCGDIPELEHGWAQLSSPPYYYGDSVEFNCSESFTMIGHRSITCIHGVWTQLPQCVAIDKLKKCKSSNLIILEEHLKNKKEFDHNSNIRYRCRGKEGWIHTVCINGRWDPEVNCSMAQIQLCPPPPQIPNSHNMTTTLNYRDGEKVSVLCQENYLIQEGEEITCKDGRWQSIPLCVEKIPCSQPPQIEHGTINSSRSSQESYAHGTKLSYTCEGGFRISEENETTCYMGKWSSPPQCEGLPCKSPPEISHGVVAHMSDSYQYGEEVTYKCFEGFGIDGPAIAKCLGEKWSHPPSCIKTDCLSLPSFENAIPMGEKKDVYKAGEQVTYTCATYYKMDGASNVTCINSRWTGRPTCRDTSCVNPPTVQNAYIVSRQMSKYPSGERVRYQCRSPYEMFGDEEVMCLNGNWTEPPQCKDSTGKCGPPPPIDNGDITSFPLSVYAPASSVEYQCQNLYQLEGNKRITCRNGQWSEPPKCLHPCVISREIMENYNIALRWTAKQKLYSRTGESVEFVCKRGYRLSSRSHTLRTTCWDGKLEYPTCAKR

[3] = target: complement factor H (FH), NT647-labeled full-length FH (human) (UniProt P08603); assay: MST; FH at 2 nM held constant (NT647-labelled by the legend of Fig 1I), native apoE2 or native apoE4 titrated; n = 3; Kd fit model of normalized (ΔFnorm) values; 150 mM KCl, 25 mM HEPES pH 7.5, 0.01% Tween 20, 0.01% NaN3
Sequence of complement factor H (FH), NT647-labeled full-length FH (human) (P08603 19-1231): as above

Sequence of FH402H (P08603 19-1231 Y402H): as the sequence (P08603 19-1231) above, with Y384H counted along it
Sequence of FH402Y (P08603 19-1231): as the sequence (P08603 19-1231) above

| Kd [1] [µM] | Kd [2] [µM] | Substance | further results |
| --- | --- | --- | --- |
| 0.999 | – | FH1-4 (domain or fragment) | – |
| – | 1.95 | apoE4 (from UniProt P02649 19-317) (natural protein) | – |
| – | 1 | apoE2 (from UniProt P02649 19-317) (natural protein) | – |
| 0.496 | – | FH402H (from UniProt P08603 19-1231) (natural protein) | – |
| – | – | native apoE4 (from UniProt P02649 19-317) (natural protein) | Kd [3]: 0.3 µM |
| 0.253 | – | FH402Y (from UniProt P08603 19-1231) (natural protein) | – |
| – | – | native apoE2 (from UniProt P02649 19-317) (natural protein) | Kd [3]: 0.002 µM |
| – | 1.38 | apoE3 (from UniProt P02649 19-317) (natural protein) | – |
